# Results reported in patent US7662583B2, “Bioreactor containing cells expressing glycosyltransferase nucleic acids isolatable from Arabidopsis” (The University of York, priority 2003, dated 2010).
# Assay: UGT enzyme reaction with quercetin (recombinant UGTs, HPLC)
# Type: biochemical, Arabidopsis
# Conditions: 0.5 mM quercetin, 5 mM UDP-glucose, 30° C.; for Specific activity (nkat/mg protein) 3-O-glc: quercetin glucosylated at 3-OH; for Specific activity (nkat/mg protein) 3′-O-glc: quercetin glucosylated at 3′-OH; for Specific activity (nkat/mg protein) 4′-O-glc: quercetin glucosylated at 4′-OH; for Specific activity (nkat/mg protein) 7-O-glc: quercetin glucosylated at 7-OH
# Protocol: The assay mix (200 μl) contained 2 μg of recombinant protein, 100 mM Tris-HCl, pH 7.0, 5 mM UDP-glucose 1.4 mM 2-mercaptoethanol, and 0.5 mM of quercetin. The reaction was carried out at 30° C. for 1 h, and was quick-frozen and stored at −20° C. prior to the reverse-phase HPLC analysis
# Reverse-phase HPLC (SpectraSYSTEM HPLC systems and UV6000LP Photodiode Array Detector, ThermoQuest) analysis was carried using a Columbus 5μ C18 column (250×4.60 mm, PHENOMENEX). Quercetin glucosides were separated from the aglycone by a linear gradient of 10-75% acetonitrile in H2O (all solution contained 0.1% trifluoroacetic acid) at 1 ml/mm over 20 mm and monitored at 370 nm. Cytokinin glucosides were separated from their aglycone by a liner gradient of 10-100% methanol in H2O (for N6-isopentenyladenine (iP), N6-benzyladenine and kinetin) or 10-60% methanol in H2O (for trans-zeatin and dihydrozeatin) at 1 ml/min over 20 mm. All solution contained 0.25% acetic acid and 0.04% triethylamine, trifluoroacetic acid. The separation was monitored at 206 nm and 252 nm. The identity of the products was confirmed by comparison with authentic gluco sides.
# The activity of Arabidopsis recombinant UGTs towards quercetin was determined using the platform developed previously^15.
Molecule,Specific activity (nkat/mg protein) 3-O-glc,Specific activity (nkat/mg protein) 3′-O-glc,Specific activity (nkat/mg protein) 4′-O-glc,Specific activity (nkat/mg protein) 7-O-glc
"UGT78D1: Arabidopsis recombinant glycosyltransferase (protein, UniProt Q9S9P6 1-453, looked up) Flavonol-3-O-rhamnosyltransfer …: MTKFSEPIRDSHVAVLAFFPVGAHAGPLLAVTRRLAAASPSTIFSFFNTARSNASLFSSDHPENIKVHDVSDGVPEGTMLGNPLEMVELFLEAAPRIFRSEIAAAEIEVGKKVTCMLTDAFFWFAADIAAELNATWVAFWAGGANSLCAHLYTDLIRETIGLKDVSMEETLGFIPGMENYRVKDIPEEVVFEDLDSVFPKALYQMSLALPRASAVFISSFEELEPTLNYNLRSKLKRFLNIAPLTLLSSTSEKEMRDPHGCFAWMGKRSAASVAYISFGTVMEPPPEELVAIAQGLESSKVPFVWSLKEKNMVHLPKGFLDRTREQGIVVPWAPQVELLKHEAMGVNVTHCGWNSVLESVSAGVPMIGRPILADNRLNGRAVEVVWKVGVMMDNGVFTKEGFEKCLNDVFVHDDGKTMKANAKKLKEKLQEDFSMKGSSLENFKILLDEIVKV",0.24 nkat/mg protein,— (Activity lower than 0.02 nkat/mg protein has been considered as trace activity and is not shown in the Table.),— (Activity lower than 0.02 nkat/mg protein has been considered as trace activity and is not shown in the Table.),— (Activity lower than 0.02 nkat/mg protein has been considered as trace activity and is not shown in the Table.)
"UGT73B2: Arabidopsis recombinant glycosyltransferase (protein, UniProt Q94C57 1-483, looked up) UDP-glucosyl transferase 73B2: MGSDHHHRKLHVMFFPFMAYGHMIPTLDMAKLFSSRGAKSTILTTSLNSKILQKPIDTFKNLNPGLEIDIQIFNFPCVELGLPEGCENVDFFTSNNNDDKNEMIVKFFFSTRFFKDQLEKLLGTTRPDCLIADMFFPWATEAAGKFNVPRLVFHGTGYFSLCAGYCIGVHKPQKRVASSSEPFVIPELPGNIVITEEQIIDGDGESDMGKFMTEVRESEVKSSGVVLNSFYELEHDYADFYKSCVQKRAWHIGPLSVYNRGFEEKAERGKKANIDEAECLKWLDSKKPNSVIYVSFGSVAFFKNEQLFEIAAGLEASGTSFIWVVRKTKDDREEWLPEGFEERVKGKGMIIRGWAPQVLILDHQATGGFVTHCGWNSLLEGVAAGLPMVTWPVGAEQFYNEKLVTQVLRTGVSVGASKHMKVMMGDFISREKVDKAVREVLAGEAAEERRRRAKKLAAMAKAAVEEGGSSFNDLNSFMEEFSS",0.92 nkat/mg protein,— (Activity lower than 0.02 nkat/mg protein has been considered as trace activity and is not shown in the Table.),— (Activity lower than 0.02 nkat/mg protein has been considered as trace activity and is not shown in the Table.),— (Activity lower than 0.02 nkat/mg protein has been considered as trace activity and is not shown in the Table.)
"UGT78D3: Arabidopsis recombinant glycosyltransferase, FIG. 6 (protein, UniProt Q9LFK0 1-459, looked up) UDP-glycosyltransferase 78D3: MAKPSQPTRDSHVAVLVFPFGTHAAPLLAVTCRLATAAPSTVFSFFSTARSNSSLLSSDIPTNIRVHNVDDGVPEGFVLTGNPQHAVELFLEAAPEIFRREIKAAETEVGRKFKCILTDAFLWLAAETAAAEMKASWVAYYGGGATSLTAHLYTDAIRENVGVKEVGERMEETIGFISGMEKIRVKDTQEGVVFGNLDSVFSKTLHQMGLALPRATAVFINSFEELDPTFTNDFRSEFKRYLNIGPLALLSSPSQTSTLVHDPHGCLAWIEKRSTASVAYIAFGRVATPPPVELVAIAQGLESSKVPFVWSLQEMKMTHLPEGFLDRTREQGMVVPWAPQVELLNHEAMGVFVSHGGWNSVLESVSAGVPMICRPIFGDHAINARSVEAVWEIGVTISSGVFTKDGFEESLDRVLVQDDGKKMKVNAKKLEELAQEAVSTKGSSFENFGGLLDEVVNFG",0.16 nkat/mg protein,— (Activity lower than 0.02 nkat/mg protein has been considered as trace activity and is not shown in the Table.),— (Activity lower than 0.02 nkat/mg protein has been considered as trace activity and is not shown in the Table.),— (Activity lower than 0.02 nkat/mg protein has been considered as trace activity and is not shown in the Table.)
"UGT72B3: Arabidopsis recombinant glycosyltransferase (protein, UniProt Q9LNI1 1-481, looked up) UDP-glycosyltransferase 72B3: MADGNTPHVAIIPSPGIGHLIPLVELAKRLLDNHGFTVTFIIPGDSPPSKAQRSVLNSLPSSIASVFLPPADLSDVPSTARIETRISLTVTRSNPALRELFGSLSAEKRLPAVLVVDLFGTDAFDVAAEFHVSPYIFYASNANVLTFLLHLPKLDETVSCEFRELTEPVIIPGCVPITGKDFVDPCQDRKDESYKWLLHNVKRFKEAEGILVNSFVDLEPNTIKIVQEPAPDKPPVYLIGPLVNSGSHDADVNDEYKCLNWLDNQPFGSVLYVSFGSGGTLTFEQFIELALGLAESGKRFLWVIRSPSGIASSSYFNPQSRNDPFSFLPQGFLDRTKEKGLVVGSWAPQAQILTHTSIGGFLTHCGWNSSLESIVNGVPLIAWPLYAEQKMNALLLVDVGAALRARLGEDGVVGREEVARVVKGLIEGEEGNAVRKKMKELKEGSVRVLRDDGFSTKSLNEVSLKWKAHQRKIDQEQESFL",0.20 nkat/mg protein,— (Activity lower than 0.02 nkat/mg protein has been considered as trace activity and is not shown in the Table.),— (Activity lower than 0.02 nkat/mg protein has been considered as trace activity and is not shown in the Table.),— (Activity lower than 0.02 nkat/mg protein has been considered as trace activity and is not shown in the Table.)
"UGT71B5: Arabidopsis recombinant glycosyltransferase (protein, UniProt O23382 1-478, looked up) UDP-glycosyltransferase 71B5: MKIELVFIPLPGIGHLRPTVKLAKQLIGSENRLSITIIIIPSRFDAGDASACIASLTTLSQDDRLHYESISVAKQPPTSDPDPVPAQVYIEKQKTKVRDAVAARIVDPTRKLAGFVVDMFCSSMIDVANEFGVPCYMVYTSNATFLGTMLHVQQMYDQKKYDVSELENSVTELEFPSLTRPYPVKCLPHILTSKEWLPLSLAQARCFRKMKGILVNTVAELEPHALKMFNINGDDLPQVYPVGPVLHLENGNDDDEKQSEILRWLDEQPSKSVVFLCFGSLGGFTEEQTRETAVALDRSGQRFLWCLRHASPNIKTDRPRDYTNLEEVLPEGFLERTLDRGKVIGWAPQVAVLEKPAIGGFVTHCGWNSILESLWFGVPMVTWPLYAEQKVNAFEMVEELGLAVEIRKYLKGDLFAGEMETVTAEDIERAIRRVMEQDSDVRNNVKEMAEKCHFALMDGGSSKAALEKFIQDVIENMD",0.26 nkat/mg protein,— (Activity lower than 0.02 nkat/mg protein has been considered as trace activity and is not shown in the Table.),— (Activity lower than 0.02 nkat/mg protein has been considered as trace activity and is not shown in the Table.),— (Activity lower than 0.02 nkat/mg protein has been considered as trace activity and is not shown in the Table.)
"UGT71C5: Arabidopsis recombinant glycosyltransferase (protein, UniProt Q9FE68 1-480, looked up) UDP-glycosyltransferase 71C5: MKTAELIFVPLPETGHLLSTIEFGKRLLNLDRRISMITILSMNLPYAPHADASLASLTASEPGIRIISLPEIHDPPPIKLLDTSSETYILDFIHKNIPCLRKTIQDLVSSSSSSGGGSSHVAGLILDFFCVGLIDIGREVNLPSYIFMTSNFGFLGVLQYLPERQRLTPSEFDESSGEEELHIPAFVNRVPAKVLPPGVFDKLSYGSLVKIGERLHEAKGILVNSFTQVEPYAAEHFSQGRDYPHVYPVGPVLNLTGRTNPGLASAQYKEMMKWLDEQPDSSVLFLCFGSMGVFPAPQITEIAHALELIGCRFIWAIRTNMAGDGDPQEPLPEGFVDRTMGRGIVCSWAPQVDILAHKATGGFVSHCGWNSVQESLWYGVPIATWPMYAEQQLNAFEMVKELGLAVEIRLDYVADGDRVTLEIVSADEIATAVRSLMDSDNPVRKKVIEKSSVARKAVGDGGSSTVATCNFIKDILGDHF",0.33 nkat/mg protein,— (Activity lower than 0.02 nkat/mg protein has been considered as trace activity and is not shown in the Table.),— (Activity lower than 0.02 nkat/mg protein has been considered as trace activity and is not shown in the Table.),— (Activity lower than 0.02 nkat/mg protein has been considered as trace activity and is not shown in the Table.)
